From patent US20240402174A1 (Takeda / Millennium, published 2024) come the findings set out here.

One experiment has as its target T1, GII.4/Sydney VLP (norovirus …, UniProt P54635 1-538).
T1 construct: also called Hu/GII.4/Sydney/NSW0514/2012/AU
T1 chain: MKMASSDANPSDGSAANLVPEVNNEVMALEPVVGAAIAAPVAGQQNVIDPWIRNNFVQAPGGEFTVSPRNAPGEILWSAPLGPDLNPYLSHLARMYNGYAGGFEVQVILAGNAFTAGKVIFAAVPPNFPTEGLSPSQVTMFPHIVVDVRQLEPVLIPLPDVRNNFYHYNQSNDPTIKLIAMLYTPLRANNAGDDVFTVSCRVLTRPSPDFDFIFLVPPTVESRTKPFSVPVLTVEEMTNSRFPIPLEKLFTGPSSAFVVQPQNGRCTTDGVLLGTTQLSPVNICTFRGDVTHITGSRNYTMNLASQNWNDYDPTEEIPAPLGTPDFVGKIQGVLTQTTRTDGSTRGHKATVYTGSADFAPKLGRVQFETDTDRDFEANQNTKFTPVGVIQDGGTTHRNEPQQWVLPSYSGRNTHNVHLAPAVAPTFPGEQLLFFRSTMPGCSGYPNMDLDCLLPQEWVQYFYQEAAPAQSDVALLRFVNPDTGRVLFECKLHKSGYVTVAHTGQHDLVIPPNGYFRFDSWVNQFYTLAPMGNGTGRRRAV
Kind of experiment: PGM blockade assay, serially diluted mAb.

The target of the next experiment is T2, GII.4/Houston VLP (norovirus …, UniProt P54635 1-539).
T2 construct: also called Hu/GII.4/Houston/TCH186/2002/US
T2 chain: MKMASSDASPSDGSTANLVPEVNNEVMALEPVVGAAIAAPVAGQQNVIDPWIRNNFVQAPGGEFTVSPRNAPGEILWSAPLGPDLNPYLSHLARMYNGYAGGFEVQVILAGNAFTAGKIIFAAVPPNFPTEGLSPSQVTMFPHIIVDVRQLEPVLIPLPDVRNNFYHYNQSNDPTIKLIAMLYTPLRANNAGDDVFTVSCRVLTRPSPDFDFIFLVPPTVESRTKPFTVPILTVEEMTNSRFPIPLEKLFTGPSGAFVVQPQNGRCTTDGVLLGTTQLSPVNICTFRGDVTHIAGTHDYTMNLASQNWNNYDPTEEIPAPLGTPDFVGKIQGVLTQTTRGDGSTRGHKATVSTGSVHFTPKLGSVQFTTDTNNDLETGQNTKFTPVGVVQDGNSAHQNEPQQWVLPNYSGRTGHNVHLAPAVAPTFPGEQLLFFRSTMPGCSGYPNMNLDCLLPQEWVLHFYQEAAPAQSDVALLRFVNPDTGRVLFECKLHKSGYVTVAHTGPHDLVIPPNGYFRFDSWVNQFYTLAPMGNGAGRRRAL
As to the kind of experiment: PGM blockade assay, serially diluted mAb.

The target of another experiment is T3, GII.17/1978 VLP (norovirus Hu/GII.17/C142/GF/1978).
T3 construct: also called Hu/GII.17/C142/GF/1978
T3 chain: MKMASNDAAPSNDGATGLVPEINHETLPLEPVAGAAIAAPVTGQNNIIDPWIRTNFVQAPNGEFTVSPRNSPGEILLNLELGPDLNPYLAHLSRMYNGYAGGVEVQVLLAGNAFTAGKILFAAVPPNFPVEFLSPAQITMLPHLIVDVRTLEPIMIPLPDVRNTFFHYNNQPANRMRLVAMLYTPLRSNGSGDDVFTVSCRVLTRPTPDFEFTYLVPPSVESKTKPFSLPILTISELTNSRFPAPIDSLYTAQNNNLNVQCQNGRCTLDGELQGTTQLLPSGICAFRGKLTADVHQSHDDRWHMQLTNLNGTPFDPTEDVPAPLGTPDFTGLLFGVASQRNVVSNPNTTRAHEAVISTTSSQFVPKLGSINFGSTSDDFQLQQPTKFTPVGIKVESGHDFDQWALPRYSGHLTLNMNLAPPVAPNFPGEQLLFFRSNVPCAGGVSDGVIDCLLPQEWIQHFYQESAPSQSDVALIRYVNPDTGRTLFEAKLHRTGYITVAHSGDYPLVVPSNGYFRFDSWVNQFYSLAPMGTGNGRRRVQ
Kind of experiment: multiplex microsphere immunoassay.

The next experiment deals with T4, GII.1 VLP (norovirus Hu/GII.1/Ascension208/2010/USA).
T4 chain: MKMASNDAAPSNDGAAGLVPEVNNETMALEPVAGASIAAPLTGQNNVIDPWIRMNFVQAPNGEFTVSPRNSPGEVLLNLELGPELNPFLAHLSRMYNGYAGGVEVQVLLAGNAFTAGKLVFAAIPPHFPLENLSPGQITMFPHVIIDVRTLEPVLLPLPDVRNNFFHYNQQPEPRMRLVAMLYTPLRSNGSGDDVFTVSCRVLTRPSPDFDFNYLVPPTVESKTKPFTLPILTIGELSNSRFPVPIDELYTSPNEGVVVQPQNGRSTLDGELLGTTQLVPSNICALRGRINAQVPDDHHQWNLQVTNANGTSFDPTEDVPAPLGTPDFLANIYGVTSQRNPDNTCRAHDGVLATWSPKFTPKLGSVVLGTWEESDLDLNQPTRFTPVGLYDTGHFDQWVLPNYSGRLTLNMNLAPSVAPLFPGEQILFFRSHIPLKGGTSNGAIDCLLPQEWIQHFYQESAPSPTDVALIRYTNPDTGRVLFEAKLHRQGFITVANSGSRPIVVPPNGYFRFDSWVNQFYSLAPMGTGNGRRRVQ
As to the kind of experiment: multiplex microsphere immunoassay.

Description for GII.4/Houston VLP: (§1) Plates were washed 3 times with PBST before use. […] The mixture was transferred to the PGM-coated plates including VLP-only controls and incubation carried out for 1 h at 22° C. or 37° C. Following 3 washes with PBST, detection antibody specific for the corresponding VLP was added and the plates were incubated at room temperature for 1 h and then washed 3 times with PBST. […] Following 3 washes, enzyme substrate (ABTS, KPL) was added and allowed to react for 12 min at room temperature. ABTS Peroxidase Stop Solution (KPL) was then added and plates were read at a wavelength of 450 nm in a Molecular Devices plate reader using SoftMax Pro Software (Molecular Devices, Downingtown, PA, USA) to obtain the Optical Density (GD) of each well.
(§2) The following, day corresponding dilutions incubated with VLPs were transferred to the PGM-coated plates. The OD data was curve fit and blocking titers were calculated as the supernatant dilution interpolated at 1/2 the maximum OD for the plate. The blocking titers represent the supernatant dilution that produces a 50% reduction in VLP binding to PGM. The maximum OD for the plate was calculated from the VLP only control.
Description for GII.4/Sydney VLP: as §1, §2

B1: human mAb 1431 (antibody, V domains shown)
VH: QVQLVQSGGGLVQPGGSLRLSCAASGFAFSNHGMHWVRQAPGKGLEWLSYISGSTGAIHYANSVKGRFTISRDNARNSLDLQMNSLGDEDTAVYYCARDGPRPDGTGYAGPSNDYWGQGTLVSVSS
VL: EIVLTQSPASLSLSPGERATLSCKASRSISIYLAWYQQKPGQAPRLLIYDASYRAIGIPARFSGSGSGTDFTLTISNLEPEDFAVYYCQHRSSWPALTFGGGTKVEI
notes: also called A1431
Consider B1, for which the blocking titer with GII.4/Sydney VLP is 7280; with GII.4/Houston VLP it was 12100. Moreover, the binding result in the experiment with GII.17/1978 VLP and in the experiment with GII.1 VLP was “no binding” throughout.
